From patent US20230212554A1

Experiments:
[1] = target: NP of B/Brisbane/60/2008(fluB) (influenza B virus B/Brisbane/60/2008); assay: ELISA on virus-infected fixed MDCK cells
[2] = target: NPB1 (influenza B virus B/Houston/B720/2004) (UniProt O36433); assay: ELISA on recombinant NP

ab47876 (antibody) showed an EC50 [1] of 2.06 nM and an EC50 [2] of 0.13 nM.
